# Data reported in patent US12618828B2, “Probe and method for detecting membrane-associated molecules in living cells” (priority 2021, dated 2026).
# Columns and labels:
# Format in all cases: cell-based
# [1] = molecular target: T1, activated form of the G-protein Gαi1 (Gαi1(Q204L)) (Homo sapiens, UniProt P63096, Q204L); assay: Polarization microscopy of probe in HEK293 cells, with or without cotransfected constitutively activated Gαi1(Q204L); settings: cotransfection of Gαi1(Q204L) plasmid
# T1 construct: expressed in transfected cells; host or cells: HEK293
# T1 sequence (P63096 whole entry Q204L): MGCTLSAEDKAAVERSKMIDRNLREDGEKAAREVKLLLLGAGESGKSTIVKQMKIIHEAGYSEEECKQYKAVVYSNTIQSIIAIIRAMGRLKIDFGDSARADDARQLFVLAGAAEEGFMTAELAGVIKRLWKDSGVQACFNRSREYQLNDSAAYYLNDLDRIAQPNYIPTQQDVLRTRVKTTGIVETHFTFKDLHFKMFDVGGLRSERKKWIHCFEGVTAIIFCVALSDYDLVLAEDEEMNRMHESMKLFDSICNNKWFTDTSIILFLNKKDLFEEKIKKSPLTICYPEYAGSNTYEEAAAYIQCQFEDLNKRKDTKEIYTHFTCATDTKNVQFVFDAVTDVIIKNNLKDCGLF
# Excerpt: A protein (SEQ ID NO:5) that includes as an anchoring moiety a fragment of the protein h-Ras, a flexible peptide linker (amino acid sequence GSGGSGG (SEQ ID NO:1)), a monomeric enhanced green fluorescent protein (meGFP) as a fluorescent moiety, and an affinity binding peptide KB1753 known to bind the activated form of the G-protein Gαi1 (Johnston C A & al., Structure. 2005 Jul. 1; 13(7):1069-80), was encoded into a DNA sequence (SEQ ID NO:6) and cloned into a mammalian expression vector (pcDNA3.1(+)) under the control of the cytomegalovirus (CMV) promoter. The resulting DNA encoding the probe of invention was transfected into HEK293 cells either alone, or along with DNA encoding the target protein of the probe.
# (§1) Prior to microscopy observations, mammalian cells (HEK293) were cultured at 37° C. under an atmosphere of 95% air, 5% CO2, in Dulbecco's modified Eagle's medium with Glutamax I and high glucose (Life Technologies), supplemented with 10% fetal bovine serum. Cells were plated on 8-chamber microscopy slides (p-Slides, Ibidi GmbH, Germany). Transfections were carried out using 0.2 μg of plasmid DNA and Lipofectamine 2000 (Life Technologies), according to the protocol of the manufacturer. In cotransfections, 0.2 μg of each of the plasmids were used. Microscopy experiments were carried out 48 h after transfection. Microscopy observations were performed at 37° C., maintained by a heated chamber (iBidi Heating System, iBidi).
# The cells were observed by excitation polarization resolved single-photon laser scanning confocal microscopy, by excitation polarization resolved two-photon laser scanning microscopy, by excitation polarization resolved single-photon wide-field fluorescence microscopy, and by fluorescence polarization resolved single-photon laser scanning confocal microscopy.
# In excitation polarization resolved single-photon laser scanning confocal microscopy, the cells (in the multi-well cover slip) were observed using a single-photon laser scanning confocal microscope Olympus FV1200, modified for excitation-polarization resolved microscopy. Specifically, the excitation laser beam was passed through an electrooptical polarization modulator (RPM-2P, Innovative Bioimaging, USA) synchronized with the function of the microscope so that the direction of polarization of the laser light was alternated between horizontal and vertical direction (within the image) between acquisition of individual pixels of the image. In order to observe the probes of invention containing the green fluorescent protein (GFP), 488 nm wavelength was used for excitation. Fluorescence of wavelengths in the range of 510-610 nm was separated from the excitation light by a long-pass dichroic mirror (DM405/488, Olympus, Japan), diffractive grating, and an adjustable slit, and detected by a photomultiplier. The samples were imaged by a 40× water immersion lens (UApoN340, NA1.15. Olympus, Japan).
# The resulting images were deconvolved and quantitatively analyzed by following published procedures (Bondar A & al., Communications Biology. 2021 Feb. 12; 4(1):1-2.) that rely on publicly available software tools. Briefly, an acquired image, containing in different pixels information on fluorescence intensity excited with distinct polarizations of excitation light was deconvolved into two images, each containing fluorescence intensity excited by one polarization of the excitation light. After background subtraction, an image was generated to show, in each pixel, the base 2 logarithm of the ratio between the values of the corresponding pixels of the images containing information on fluorescence intensity excited with a horizontal and vertical polarization of excitation light. The resulting image was segmented to identify parts that correspond to the cell membrane. […]
# [2] = molecular target: T2, activated form of the μ-opioid receptor (Homo sapiens, UniProt P35372); assay: Polarization microscopy of probe in HEK293 cells, μ-opioid receptor activated by DAMGO; settings: cotransfection of μ-opioid receptor plasmid and 10 μM DAMGO, excitation polarization resolved single-photon confocal microscopy
# T2 construct: expressed in transfected cells; host or cells: HEK293
# T2 sequence (P35372 whole entry): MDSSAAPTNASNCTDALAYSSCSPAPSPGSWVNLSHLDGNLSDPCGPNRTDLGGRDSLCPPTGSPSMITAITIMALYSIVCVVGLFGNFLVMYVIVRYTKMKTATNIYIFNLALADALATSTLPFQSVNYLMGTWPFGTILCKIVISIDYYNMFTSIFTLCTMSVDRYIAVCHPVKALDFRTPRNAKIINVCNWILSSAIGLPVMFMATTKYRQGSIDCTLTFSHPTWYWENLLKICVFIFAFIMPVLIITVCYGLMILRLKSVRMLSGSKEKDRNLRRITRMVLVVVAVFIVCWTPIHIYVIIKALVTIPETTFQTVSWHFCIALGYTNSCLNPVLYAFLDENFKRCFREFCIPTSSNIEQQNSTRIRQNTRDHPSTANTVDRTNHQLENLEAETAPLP
# Description: as §1, with “Microscopy observations were performed at 37° C., maintained by a heated chamber (iBidi Heating System, iBidi).” left out
# (§2) In excitation polarization resolved single-photon laser scanning confocal microscopy, the cells (in the multi-well cover slip) were observed using a single-photon laser scanning confocal microscope Olympus FV1200, modified for excitation-polarization resolved microscopy. […] Fluorescence of wavelengths in the range of 510-610 nm was separated from the excitation light by a long-pass dichroic mirror (DM405/488, Olympus, Japan), diffractive grating, and an adjustable slit, and detected by a photomultiplier. […]
# (§3) The resulting images were deconvolved and quantitatively analyzed by following published procedures (Bondar A & al., Communications Biology. 2021 Feb. 12; 4(1):1-2.) that rely on publicly available software tools. […]
# [3] = molecular target: T3, activated form of the small GTPase Rac1 (Rac1(Q61L)) (Homo sapiens, UniProt P63000, Q61L); assay: Polarization microscopy of probe in HEK293 cells, with or without cotransfected Rac1(Q61L); settings: cotransfection of Rac1(Q61L) plasmid, excitation polarization resolved single-photon confocal microscopy
# T3 construct: expressed in transfected cells; host or cells: HEK293
# Description: as §1, with “Microscopy observations were performed at 37° C., maintained by a heated chamber (iBidi Heating System, iBidi).” left out
# as §2, §3
# [4] = molecular target: T4, activated form of the insulin receptor 1 (Homo sapiens, UniProt P06213); assay: Polarization microscopy of probe in HEK293 cells, insulin receptor 1 activated by serum insulin; settings: cotransfection of insulin receptor 1 plasmid, activated by 5% fetal bovine serum containing natural levels of insulin, excitation polarization resolved single-photon confocal microscopy
# T4 construct: His tag (named His6); expressed in transfected cells; host or cells: HEK293
# T4 sequence (P06213 with tags, fused parts or gaps isoform P06213-2): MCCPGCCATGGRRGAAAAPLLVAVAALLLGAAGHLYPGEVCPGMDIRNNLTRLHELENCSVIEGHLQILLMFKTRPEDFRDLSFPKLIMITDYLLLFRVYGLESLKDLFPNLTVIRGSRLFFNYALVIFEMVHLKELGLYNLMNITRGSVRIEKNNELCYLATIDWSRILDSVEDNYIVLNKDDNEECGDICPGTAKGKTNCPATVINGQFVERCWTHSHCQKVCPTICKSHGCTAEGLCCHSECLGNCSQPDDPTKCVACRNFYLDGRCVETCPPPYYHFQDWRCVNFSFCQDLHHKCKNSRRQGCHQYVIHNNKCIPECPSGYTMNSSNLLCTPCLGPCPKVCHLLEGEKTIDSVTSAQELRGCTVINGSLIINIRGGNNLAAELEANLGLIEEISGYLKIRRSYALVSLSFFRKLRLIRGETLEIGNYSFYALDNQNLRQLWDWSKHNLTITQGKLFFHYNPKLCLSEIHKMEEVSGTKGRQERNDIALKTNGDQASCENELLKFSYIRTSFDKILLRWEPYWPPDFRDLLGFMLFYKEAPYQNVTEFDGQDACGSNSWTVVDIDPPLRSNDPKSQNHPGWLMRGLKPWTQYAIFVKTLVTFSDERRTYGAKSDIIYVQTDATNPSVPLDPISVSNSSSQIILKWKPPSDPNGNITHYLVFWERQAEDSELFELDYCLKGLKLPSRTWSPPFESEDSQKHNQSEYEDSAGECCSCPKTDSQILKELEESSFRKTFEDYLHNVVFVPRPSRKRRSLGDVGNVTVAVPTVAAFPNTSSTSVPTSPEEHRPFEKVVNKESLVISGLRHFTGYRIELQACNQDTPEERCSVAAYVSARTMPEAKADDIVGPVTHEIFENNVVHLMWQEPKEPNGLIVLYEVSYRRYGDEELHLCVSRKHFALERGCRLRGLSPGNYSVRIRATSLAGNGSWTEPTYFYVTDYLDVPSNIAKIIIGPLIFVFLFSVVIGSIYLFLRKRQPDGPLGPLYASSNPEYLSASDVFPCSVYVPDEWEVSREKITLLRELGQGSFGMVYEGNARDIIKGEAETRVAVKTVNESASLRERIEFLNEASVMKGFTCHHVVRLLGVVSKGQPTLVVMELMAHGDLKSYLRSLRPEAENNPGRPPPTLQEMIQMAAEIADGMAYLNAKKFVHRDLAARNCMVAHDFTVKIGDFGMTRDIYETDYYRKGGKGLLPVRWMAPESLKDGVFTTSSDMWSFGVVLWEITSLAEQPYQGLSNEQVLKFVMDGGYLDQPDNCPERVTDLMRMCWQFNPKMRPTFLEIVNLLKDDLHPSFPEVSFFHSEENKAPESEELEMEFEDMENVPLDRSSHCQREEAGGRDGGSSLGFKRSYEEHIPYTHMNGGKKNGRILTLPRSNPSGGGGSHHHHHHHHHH
# Description: as §1, with “Microscopy observations were performed at 37° C., maintained by a heated chamber (iBidi Heating System, iBidi).” left out
# as §2, §3
# [5] = molecular target: T5, activated form of the small GTPase RhoA (RhoA(Q63L)) (Homo sapiens, UniProt P61586, Q63L); assay: Polarization microscopy of probe in HEK293 cells, with or without cotransfected RhoA(Q63L); settings: cotransfection of RhoA(Q63L) plasmid, excitation polarization resolved single-photon confocal microscopy
# T5 construct: expressed in transfected cells; host or cells: HEK293
# T5 sequence (P61586 whole entry Q63L): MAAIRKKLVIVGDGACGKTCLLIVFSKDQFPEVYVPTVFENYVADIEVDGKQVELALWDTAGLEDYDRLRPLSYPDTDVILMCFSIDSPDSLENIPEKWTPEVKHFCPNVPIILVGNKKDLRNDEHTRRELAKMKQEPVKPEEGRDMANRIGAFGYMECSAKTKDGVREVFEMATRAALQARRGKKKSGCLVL
# Description: as §1, with “Microscopy observations were performed at 37° C., maintained by a heated chamber (iBidi Heating System, iBidi).” left out
# as §2, §3
# [6] = molecular target: T6, activated form of the G-protein Gα13 (Gα13(Q226L)) (Homo sapiens, UniProt Q14344, Q226L); assay: Polarization microscopy of probe in HEK293 cells, with or without cotransfected Gα13(Q226L); settings: cotransfection of Gα13(Q226L) plasmid, excitation polarization resolved single-photon confocal microscopy
# T6 construct: expressed in transfected cells; host or cells: HEK293
# T6 sequence (Q14344 1-377 Q226L): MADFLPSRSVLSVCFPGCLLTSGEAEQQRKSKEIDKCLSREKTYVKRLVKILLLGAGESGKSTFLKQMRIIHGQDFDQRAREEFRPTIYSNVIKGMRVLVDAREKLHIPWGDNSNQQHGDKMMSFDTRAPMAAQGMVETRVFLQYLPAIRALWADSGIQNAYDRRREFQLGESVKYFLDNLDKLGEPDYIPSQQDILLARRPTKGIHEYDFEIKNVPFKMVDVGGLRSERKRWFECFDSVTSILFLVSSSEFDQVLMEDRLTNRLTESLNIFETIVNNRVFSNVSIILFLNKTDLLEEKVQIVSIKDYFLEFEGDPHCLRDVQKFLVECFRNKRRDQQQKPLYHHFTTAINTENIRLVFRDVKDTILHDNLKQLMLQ
# Description: as §1, with “Microscopy observations were performed at 37° C., maintained by a heated chamber (iBidi Heating System, iBidi).” left out
# as §2, §3
# activated form of Gαi1 = molecular target: T7, activated form of Gαi1 (Homo sapiens, UniProt P63096); assay: Polarization microscopy of probe in HEK293 cells, Gαi1 activated through the α2-adrenergic receptor by norepinephrine; settings: HEK293 cells cotransfected with Gαi1, Gβ1, Gγ2 and α2-adrenergic receptor; 10 μM norepinephrine; excitation polarization resolved single-photon confocal microscopy
# T7 construct: expressed in transfected cells; host or cells: HEK293
# T7 sequence (P63096 whole entry): as the sequence (P63096 whole entry Q204L) above, with L204Q counted along it
# Description: as §1, with “Microscopy observations were performed at 37° C., maintained by a heated chamber (iBidi Heating System, iBidi).” left out
# as §2, §3
# GβGγ dimer = molecular target: T8, GβGγ dimer (Homo sapiens, UniProt P59768+P62873); assay: Polarization microscopy of probe in HEK293 cells, with or without cotransfected GβGγ dimer; settings: cotransfection of plasmids encoding the, excitation polarization resolved single-photon confocal microscopy
# T8 construct: expressed in transfected cells; host or cells: HEK293
# T8 sequence (P62873 2-340 limits assumed): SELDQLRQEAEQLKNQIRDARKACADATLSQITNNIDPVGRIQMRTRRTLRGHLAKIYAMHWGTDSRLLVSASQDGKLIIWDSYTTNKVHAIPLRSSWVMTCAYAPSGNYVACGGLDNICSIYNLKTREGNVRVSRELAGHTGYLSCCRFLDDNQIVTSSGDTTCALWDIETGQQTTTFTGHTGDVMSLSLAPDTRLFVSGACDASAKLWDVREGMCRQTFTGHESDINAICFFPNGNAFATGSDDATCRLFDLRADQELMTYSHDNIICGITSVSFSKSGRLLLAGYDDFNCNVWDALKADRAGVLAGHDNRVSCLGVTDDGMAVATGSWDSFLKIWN
# T8 sequence (P59768 2-68 limits assumed): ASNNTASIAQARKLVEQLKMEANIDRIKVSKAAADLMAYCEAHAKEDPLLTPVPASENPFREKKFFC
# Description: as §1, with “Microscopy observations were performed at 37° C., maintained by a heated chamber (iBidi Heating System, iBidi).” left out
# as §2, §3
# [7] = test system: activated form of the β2-adrenergic receptor; assay: Polarization microscopy of probe in HEK293 cells, β2-adrenergic receptor activated by norepinephrine; settings: β2-adrenergic receptor is the probe's anchoring moiety, 10 uM norepinephrine, excitation polarization resolved single-photon confocal microscopy
# Description: as §1, with “Microscopy observations were performed at 37° C., maintained by a heated chamber (iBidi Heating System, iBidi).” left out
# as §2, §3
# [8] = molecular target: T9, activated form of the β2-adrenergic receptor (Homo sapiens, UniProt P07550, E27Q/G16R); assay: as above; settings: cotransfection of β2-adrenergic receptor plasmid and 10 μM norepinephrine, excitation polarization resolved single-photon confocal microscopy
# T9 construct: expressed in transfected cells; host or cells: HEK293
# Description: as §1, with “Microscopy observations were performed at 37° C., maintained by a heated chamber (iBidi Heating System, iBidi).” left out
# as §2, §3
# [9] = excitation polarization resolved single-photon laser scanning confocal microscopy
substance,measurement,setting,value
GAP43-SSGSSGTG-meGFP-KB1753 [Example 4],linear dichroism of the fluorescent moiety of the probe in presence of its target molecule compared with absence,[1]; [9],statistically significantly higher
NB33-meGFP-GSGGSGG-hRas [Example 15],linear dichroism of the fluorescent moiety of the probe in presence of its target molecule compared with absence,[2],statistically significantly lower
IL4R-SSGSSGTG-meGFP-KB1753 [Example 5],linear dichroism of the fluorescent moiety of the probe in presence of its target molecule compared with absence,[1]; [9],statistically significantly higher
GAP43-SSGSSGTG-meGFP-Δ6-PAK1 [Example 21],linear dichroism of the fluorescent moiety of the probe in presence of its target molecule compared with absence,[3],statistically significantly lower
KB1753-meGFP-GSGGSGG-kRas [Example 3],linear dichroism of the fluorescent moiety of the probe in presence of its target molecule compared with absence,[1]; [9],statistically significantly higher
GAP43-SSGSSGTG-meGFP-IRS1 [Example 22],linear dichroism of the fluorescent moiety of the probe in presence of its target molecule compared with absence,[4],statistically significantly lower
rhotekin-meGFP-GSGGSGG-hRas [Example 20],linear dichroism of the fluorescent moiety of the probe in presence of its target molecule compared with absence,[5],statistically significantly higher
KB1753-cpmTurquoise2-GSGGSGG-hRas [Example 9],linear dichroism of the fluorescent moiety of the probe in presence of its target molecule compared with absence,[1]; [9],statistically significantly higher
GAP43-SSGSSGTG-meGFP-PRGrh [Example 19],linear dichroism of the fluorescent moiety of the probe in presence of its target molecule compared with absence,[6],statistically significantly lower
KB1753-meGFP-GSGGSGG-hRas [Example 1],linear dichroism of the fluorescent moiety of the probe in presence of activated Gαi1 compared with absence,activated form of Gαi1,statistically significantly higher
same,linear dichroism of the fluorescent moiety of the probe in presence of its target molecule compared with absence,"[1]; excitation polarization resolved single-photon confocal, two-photon and wide-field microscopy, FIG. 2A",statistically significantly higher
same,fluorescence polarization of the fluorescent moiety of the probe in presence of its target molecule compared with absence,"[1]; fluorescence polarization resolved single-photon laser scanning confocal microscopy, FIG. 2A",statistically significantly higher
GAP43-SSGSSGTG-meGFP-GRK2ct [Example 17],linear dichroism of the fluorescent moiety of the probe in presence of its target molecule compared with absence,GβGγ dimer,statistically significantly lower
GAP43-SSGSSGTG-meGFP-NB33 [Example 16],linear dichroism of the fluorescent moiety of the probe in presence of its target molecule compared with absence,[2],statistically significantly lower
KB1753-meGFP-GS24-hRas [Example 6],linear dichroism of the fluorescent moiety of the probe in presence of its target molecule compared with absence,[1]; [9],statistically significantly higher
β2AR-SSGSSGTG-meGFP-NB80 [Example 14],linear dichroism of the fluorescent moiety of the probe in presence of its target molecule compared with absence,[7],statistically significantly higher
NB80-meGFP-GSGGSGG-hRas [Example 13],linear dichroism of the fluorescent moiety of the probe in presence of its target molecule compared with absence,[8],statistically significantly lower
